Measured values published in IntAct's records for PubMed 16407074.

B1: Mortality factor 4-like protein 1 (Homo sapiens), Q9UBU8-2 (parent)
chain: MAPKQDPKPKFQEGERVLCFHGPLLYEAKCVKVAIKDKQVKYFIHYSGWNKNWDEWVPESRVLKYVDTNLQKQRELQKANQEQYAEGKMRGAAPGKKTSGLQQKNVEVKTKKNKQKTPGNGDGGSTSETPQPPRKKRARVDPTVENEETFMNRVEVKVKIPEELKPWLVDDWDLITRQKQLFYLPAKKNVDSILEDYANYKKSRGNTDNKEYAVNEVVAGIKEYFNVMLGTQLLYKFERPQYAEILADHPDAPMSQVYGAPHLLRLFVRIGAMLAYTPLDEKSLALLLNYLHDFLKYLAKNSATLFSASDYEVAPPEYHRKAV

Variants of: B1
Settings: with mr1l1_human MRFAP1L1, Q96HT8
mr1l1_human MRFAP1L1, Q96HT8, sequence (Q96HT8 whole entry): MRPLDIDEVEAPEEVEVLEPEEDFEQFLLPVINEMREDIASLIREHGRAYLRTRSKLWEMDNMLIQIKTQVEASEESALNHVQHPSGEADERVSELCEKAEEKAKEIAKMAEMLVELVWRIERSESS

Variant	effect of a mutation on the interaction
V169E	disrupting interaction

Variants of: B1
Settings: with mrgbp_human MRGBP

Variant	effect of a mutation on the interaction
L291A	disrupting interaction strength
